The target in the test is QsdR (Quorum sensing degradation Regulation) wild type, transcriptional regulator of the TetR/FabR family (Rhodococcus erythropolis R138). As to the kind of experiment: SEC; gel filtration Superdex 200 26/60, buffer A (50 mM Tris-HCl pH 8, 150 mM NaCl); molecular mass estimate 44 kDa.

As to “QsdR (Quorum sensing degradation Regulation) wild type, transcriptional regulator of the TetR/FabR family (natural protein)”, the stoichiometry N is 2.

Broadly, the stoichiometry N is a count of units in the complex or per binding partner.

Values taken from paper PMC4640858.
